Results from paper PMC4650695.

Assays:
[1] = molecular target: ICP27Δ189 (HSV-1 ICP27 residues 189-512) (Herpes simplex virus 1 (HSV-1)) (UniProt P10238); experiment: AUC; sedimentation velocity, 1 mg/mL in 20 mM HEPES pH 7.4, 150 mM NaCl, 40000 RPM, 20 °C
[2] = molecular target: ICP27Δ189 (HSV-1 ICP27 residues 189-512) (Herpes simplex virus 1 (HSV-1)) (UniProt P10238); experiment: SEC-MALS; 0.5 mL at 1 mg/mL on Superdex 200 10/300GL, 0.75 mL/min in gel filtration buffer (20 mM Tris, 150 mM NaCl, 50 mM L-Arg, 50 mM L-Glu, 50 mM L-Pro, 0.1 mM TCEP, 10 μM ZnCl2, pH 8.5)
[3] = molecular target: ICP27Δ215 (HSV-1 ICP27 residues 215-512) (Herpes simplex virus 1 (HSV-1)) (UniProt P10238); experiment: AUC; sedimentation velocity, 1 mg/mL in 20 mM HEPES pH 7.4, 150 mM NaCl, 40000 RPM, 20 °C
[4] = molecular target: ICP27Δ215 (HSV-1 ICP27 residues 215-512) (Herpes simplex virus 1 (HSV-1)) (UniProt P10238); experiment: SEC-MALS; 0.5 mL at 1 mg/mL on Superdex 200 10/300GL, 0.75 mL/min in gel filtration buffer (20 mM Tris, 150 mM NaCl, 50 mM L-Arg, 50 mM L-Glu, 50 mM L-Pro, 0.1 mM TCEP, 10 μM ZnCl2, pH 8.5)
[5] = molecular target: ICP27Δ241 (HSV-1 ICP27 C-terminal residues 241-512) (Herpes simplex virus 1 (HSV-1)) (UniProt P10238); experiment: AUC; sedimentation velocity, 1 mg/mL in 20 mM HEPES pH 7.4, 150 mM NaCl, 40000 RPM, 20 °C
[6] = molecular target: ICP27Δ241 (HSV-1 ICP27 C-terminal residues 241-512) (Herpes simplex virus 1 (HSV-1)) (UniProt P10238); experiment: SEC-MALS; 0.5 mL at 1 mg/mL on Superdex 200 10/300GL, 0.75 mL/min in gel filtration buffer (20 mM Tris, 150 mM NaCl, 50 mM L-Arg, 50 mM L-Glu, 50 mM L-Pro, 0.1 mM TCEP, 10 μM ZnCl2, pH 8.5)

How did the stoichiometry N [1] turn out when “ICP27Δ189 (HSV-1 ICP27 residues 189-512) (from UniProt P10238 189-512) (domain or fragment)” was run?
Its stoichiometry N is 2.

What about the stoichiometry N [2] of the same substance?
The stoichiometry N was 2.

Which stoichiometry N [3] does the source give for “ICP27Δ215 (HSV-1 ICP27 residues 215-512) (from UniProt P10238 215-512) (domain or fragment)” here?
The stoichiometry N was 2.

What about the stoichiometry N [4] of the same substance?
The stoichiometry N was 2.

What does the source list for “ICP27Δ241 (HSV-1 ICP27 C-terminal residues 241-512) (from UniProt P10238 241-512) (domain or fragment)”?
stoichiometry N [5]: 2; stoichiometry N [6]: 2
